The record followed here is patent US20220073604A1 (ARGENX BVBA, published 2022).

Test [1] deals with T1, bacterially produced cynomolgus monkey IL-6 (cynomolgus monkey, UniProt P79341 28-212, limits assumed).
T1 construct: also called bact-cy IL-6; HIS-cyIL-6
As to the kind of experiment: off-rate of Fab 111A7 variant on bact-cy IL-6 (binding kinetics, SPR presumed; n = 1).

The target in test [2] is T2, bacterially produced human IL-6 (human, UniProt P05231 30-212).
T2 construct: also called bact-hIL-6; BACT IL-6
As to the kind of experiment: off-rate of Fab 111A7 variant on bact-hIL-6 (binding kinetics, SPR presumed; n = 1).

The target of test [3] is T3, eukaryotically produced human IL-6 (human, UniProt P05231 30-212).
T3 construct: also called euk-hIL-6; EUK IL-6
In words: off-rate of Fab 111A7 variant on euk-hIL-6 (binding kinetics, SPR presumed; n = 1).

For test [4], the target named is IL-6 (bact-hIL-6, euk-hIL-6 and bact-cy IL-6; 'average binding' of Table 21). As to the kind of experiment: average binding level in the off-rate screen (unit not given; n = 1).
Test [5] deals with T1, bacterially produced cynomolgus monkey …. As to the kind of experiment: off-rate of Fab 111A7 variant on bact-cy IL-6 (binding kinetics, SPR presumed; n = 4).
Test [6] has as its target IL-6 (bact-hIL-6, euk-hIL-6 and bact-cy IL-6; 'average binding' of Table 21). In words: average binding level in the off-rate screen (unit not given; n = 4).

Substitutions are numbered along the chain they refer to. Names may count otherwise.

B1: Fab 111A7M_L (CMC optimized variant of Fab 111A7, CDR3 methionine to leucine) (Fab, V domains shown)
VH: EVQLLESGGGLVQPGGSLRLSCAASGFTFSSYAMSWVRQAPGKGPEWVSRISAGGGSTYYGDSVKGRFTISRDNSKNTLYLQMNSLRAEDTAVYYCANRAGWGLGDYWGQGTLVTVSS
VL: QTVVTQEPSFSVSPGGTVTLTCGLSSGSVTASNYPGWYQQTPGQAPRALIYSTNDRHSGVPDRFSGSISGNKAALTITGAQAEDEADYYCALDIGDITEFGGGTQLTVL
notes: Fab; The VL is that of 111A7; also called M98X: L
Broadly, the koff is the rate constant with which the complex falls apart. Regarding B1, the koff turned out to be 0.000184 s⁻¹ in test [1], 0.000117 s⁻¹ in test [2] and 6.78e-05 s⁻¹ in test [3]. The molecule also had an average binding in test [4] of 141.

B2: Fab 111A7 with the CDR3 methionine changed to H (Fab, V domains shown)
VH: B1 VH with L104H
VL: B1 VL
The molecule B2 gave an off-rate (koff) in test [5] of 0.000222 s⁻¹. In addition, the average binding in test [6] was 109.
